Assays:
[1] = test system: C[C@@H](O)[C@H]1C(=O)N2C(C(=O)O)=C(SCCN=CN)C[C@H]12; assay: purified protein, by the assay type; settings: other: purified BL3 protein, assay with imipenem, 30° C., 50 mM HEPES pH 7.5, 50 μM ZnSO4
[2] = molecular target: P3A variant of the beta-lactamase from Bacillus licheniformis 749/C (BL), SEQ ID NO: 12 (Bacillus licheniformis, UniProt P00808, D288N); assay: Steady-state kinetic parameters of purified BL (P3A) beta-lactamase, ampicillin hydrolysis; type: biochemical; settings: purified BL protein; assay with ampicillin, 30° C., 50 mM HEPES pH 7.5
[3] = molecular target: VIM-2 metallo-beta-lactamase variant (BL2), SEQ ID NO:115 (parent VIM-2, SEQ ID NO:8) (Pseudomonas aeruginosa, UniProt Q9K2N0, E156D/Q48H/Q60R/V27S/V36A); assay: Steady-state kinetic parameters of purified BL2 beta-lactamase, imipenem hydrolysis; type: biochemical; settings: purified BL2 protein; assay with imipenem, 30° C., 50 mM HEPES pH 7.5, 50 μM ZnSO4
Procedure: β-lactamase genes bl2 and bl3, encoding respectively the metallo β-lactamases VIM-2 variant of amino acid sequence SEQ ID NO:115 and BcII from Bacillus cereus of amino acid sequence SEQ ID NO:117, were heterologously expressed in S. boulardii.
Each sample was measured in triplicates.

[4] = test system: CC1(C)S[C@@H]2[C@H](NC(=O)[C@H](N)c3ccccc3)C(=O)N2[C@H]1C(=O)O; assay: Steady-state kinetic parameters of purified BL (P3A) beta-lactamase, ampicillin hydrolysis; type: biochemical, Bacillus licheniformis 749/C; settings: other: purified BL protein, assay with ampicillin, 30° C., 50 mM HEPES pH 7.5

Chain of P3A variant of the beta-lactamase from Bacillus licheniformis 749/C (BL), SEQ ID NO: 12 (P00808 46-307 D288N): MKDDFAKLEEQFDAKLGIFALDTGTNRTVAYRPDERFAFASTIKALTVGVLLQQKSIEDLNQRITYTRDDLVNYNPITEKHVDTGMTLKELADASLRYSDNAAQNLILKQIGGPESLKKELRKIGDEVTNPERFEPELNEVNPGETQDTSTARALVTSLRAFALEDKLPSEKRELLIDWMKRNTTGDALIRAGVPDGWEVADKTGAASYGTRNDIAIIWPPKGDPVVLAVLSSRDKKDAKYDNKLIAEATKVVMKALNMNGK

BcII metallo-beta-lactamase from Bacillus cereus (BL3), SEQ ID NO:117 (Bacillus cereus)
Km [1]: 220 µM | kcat [1]: 115 s⁻¹

CC1(C)S[C@@H]2[C@H](NC(=O)[C@H](N)c3ccccc3)C(=O)N2[C@H]1C(=O)O [ampicillin]
kcat [2]: 1,345 s^−1

C[C@@H](O)[C@H]1C(=O)N2C(C(=O)O)=C(SCCN=CN)C[C@H]12 [imipenem]
Km [3]: 12 µM | kcat [3]: 200 s⁻¹

P3A variant of the beta-lactamase from Bacillus licheniformis 749/C (BL), SEQ ID NO: 12 (Bacillus licheniformis; D288N)
Km [4]: 180 µM

Source: patent US20240368575A1, “AN ENGINEERED YEAST CELL FOR THE DELIVERY OF ANTIBIOTIC-INACTIVATING ENZYMES” (priority 2021, published 2024)
